Reference: patent publication CN114605536A

Biological target: 天然TSLP
Experiment: cell-based or functional assay

Tezepelumab (antibody)
抑制天然TSLP诱导的SW756-STAT5-Luciferase报告基因细胞STAT5磷酸化活性的IC50: 1.45 ng/mL
